Experimental data from paper PMC2761005, “Three-Dimensional Structure of N-Terminal Domain of DnaB Helicase and Helicase-Primase Interactions in Helicobacter pylori” (PLoS ONE, 2009).

How the values were obtained:
[1] = biological target: C-terminal domain (CTD) of H. pylori DnaG primase (H. pylori) (UniProt P56064); test: SPR; Biacore 2000, 25°C; 750 RU of CTD of HpDnaG amine-coupled on a CM4 chip; helicase samples (10 µM) injected at 20 µl/min in 10 mM Hepes pH 7.4, 150 mM NaCl, 3 mM EDTA, 0.005% P20
Chain of C-terminal domain (CTD) of H. pylori DnaG primase (H. pylori) (P56064 whole entry, the tested form may be a part): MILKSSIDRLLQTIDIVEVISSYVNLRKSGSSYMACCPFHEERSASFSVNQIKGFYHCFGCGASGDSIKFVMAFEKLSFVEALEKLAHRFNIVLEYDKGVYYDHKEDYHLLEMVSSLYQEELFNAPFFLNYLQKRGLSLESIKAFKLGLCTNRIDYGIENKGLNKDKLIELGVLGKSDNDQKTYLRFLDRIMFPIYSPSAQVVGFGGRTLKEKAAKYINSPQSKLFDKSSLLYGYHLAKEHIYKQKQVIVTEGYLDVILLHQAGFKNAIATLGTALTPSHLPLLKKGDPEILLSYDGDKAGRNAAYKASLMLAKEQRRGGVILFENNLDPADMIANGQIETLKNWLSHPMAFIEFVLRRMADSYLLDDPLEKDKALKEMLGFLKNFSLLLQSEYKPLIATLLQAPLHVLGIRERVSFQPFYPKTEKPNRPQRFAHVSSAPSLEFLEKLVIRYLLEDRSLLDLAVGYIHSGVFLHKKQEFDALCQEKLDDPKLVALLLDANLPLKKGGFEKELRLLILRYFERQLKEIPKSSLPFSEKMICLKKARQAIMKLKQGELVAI

[2] = biological target: the molecule itself; test: SEC; Hi Load superdex-75 16/60 column, 20 mM Tris.Cl pH 7.5, 100 mM NaCl, 1 mM EDTA, 5 mM βME; mass deduced from a plot of gel filtration standards

B1: H. pylori DnaB helicase, full length (enzyme)
chain: MDHLKHLQQLQNIERIVLSGIVLANHKIEEVHSVLEPSDFYYPPNGLFFEIALKLHEEDCPIDENFIRQKMPKDKQIKEEDLVAIFAASPIDNIEAYVEEIKNASIKRKLFGLANTIREQALESAQKSSDILGAVEREVYALLNGSTIEGFRNIKEVLESAMDLITENQRKGSLEVTGIPTGFVQLDNYTSGFNKGSLVIIGARPSMGKTSLMMNMVLSALNDDRGVAVFSLEMSAEQLALRALSDLTSINMHDLESGRLDDDQWENLAKCFDHLSQKKLFFYDKSYVRIEQIRLQLRKLKSQHKELGIAFIDYLQLMSGSKATKERHEQIAEISRELKTLARELEIPIIALVQLNRSLENRDDKRPILSDIKDSGGIEQDADIVLFLYRGYIYQMRAEDNKIDKLKKEGKIEEAQELYLKVNEERRIHKQNGSIEEAEIIVAKNRNGATGTVYTRFNAPFTRYEDMPIDSHLEEGQETKVDYDIVTT
Kd [1]: 2250 nM

B2: N-terminal domain (NTD) of H. pylori DnaB helicase (residues 1-121) (domain or fragment, UniProt O25916 1-121, looked up)
chain: MDHLKHLQQLQNIERIVLSGIVLANHKIEEVHSVLEPSDFYYPPNGLFFEIALKLHEEDCPIDENFIRQKMPKDKQIKEEDLVAIFAASPIDNIEAYVEEIKNASIKRKLFGLANTIREQA
notes: Cloned NcoI/XhoI into pET 28a; also called NTD of HpDnaB; source: E. coli BL21 (DE3), purified (Ni-NTA, Superdex-75 gel filtration); not shown: His6, C-terminal, kept
stoichiometry N [2]: 2

B3: N-terminal domain with longer linker (NTDL) of H. pylori DnaB helicase (residues 1-144) (domain or fragment)
chain: MDHLKHLQQLQNIERIVLSGIVLANHKIEEVHSVLEPSDFYYPPNGLFFEIALKLHEEDCPIDENFIRQKMPKDKQIKEEDLVAIFAASPIDNIEAYVEEIKNASIKRKLFGLANTIREQALESAQKSSDILGAVEREVYALLN
Kd [1]: 110 nM
